The text below walks through data of patent publication US20160046689A1 (NOVELOGICS BIOTECHNOLOGY, published 2016).

This test concerns the target T1, recombinant extracellular alpha-3 domain of MICA (allele 001), Baculovirus-expressed, C-terminal His tag (human, UniProt Q29983 205-297).
T1 construct: Expressed in Sf9 cells and purified by Ni2+ chelation with 8M urea, then dialysed; also called alpha-3 domain MICA protein; target MICA alpha-3 domain recombinant protein
T1 sequence: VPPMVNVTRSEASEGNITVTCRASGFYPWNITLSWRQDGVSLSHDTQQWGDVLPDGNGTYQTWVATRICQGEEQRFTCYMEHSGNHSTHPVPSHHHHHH
Kind of test: BLI (Octet RED96), antibody captured by anti-mouse IgG, antigen in solution, pH 7.4, 1:1 model. The procedure:
Biomolecular interactions between antigen and antibody were directly measured by Bio-Layer Interferometry (BLI) using a Pall ForteBio Octet RED96 machine (Pall ForteBio, CA, USA). Real-time kinetic analyses were performed on the test MICA monoclonal antibodies 1F5 and 8C7, as well as two control antibodies, one of which could bind the alpha-3 MICA subdomain antigen (positive control) and one of which could not (negative control, binds other MICA subdomains), as previously determined by ELISA. The Octet RED96 apparatus operates under the principle of Bio-Layer Interferometry, a label-free technique that measures molecular interactions and complex formation. A key component of the technique is the optical biosensor whose tip is immersed in the fluids of the test well and then used to assay interference patterns between waves of light. Here, the ligand (monoclonal antibody) is localized to the surface of the biosensor through capture by previously bound anti-mouse IgG, while the analyte biomolecule (antigen) is kept in solution. Binding responses between ligand and analyte were measured and reported in real-time. Both association and dissociation kinetics were monitored and KD values were calculated. This model assumed a 1:1 interaction of ligand to analyte.
For orientation: In BLI a coated tip is dipped into the sample, and binding shifts an interference pattern.

B1: antibody 8C7 (antibody, IgG1, V domains shown)
VH: QIQLVQSGPELKKPGETVKISCKASGYTFTNYGMNWVKQAPGKGLKWMGWINTNTGEPTYAEEFKGRFAFSLETSASTAYLQINNLKNEDTATYFCARSGGSSPFAYWGQGTLVTVSA
VL: DIVMTQAAPSVPVTPGESVSISCRSSKSLLQSNGNTFLYWFMQRPGQSPQLLIYRMSNLASGVPDRFSGSGSGTAFTLRISRVEAEDVGVYYCMQHLEYPFTFGGGTKLEIKR
notes: Mouse hybridoma monoclonal, IgG1 heavy chain and kappa light chain; Tested as hybridoma supernatant in ELISA and FACS; also called antibody from clone 8C7; hybridoma clone 8C7
By Kd is commonly meant the equilibrium constant for the complex coming apart. For the molecule B1, the Kd is about 6.81 nM.

B2: antibody 1F5 (antibody, IgG1, V domains shown)
VH: QIQLVQSGPELKKPGETVKISCKASGYTFTDYSVHWVKQAPGKGLKWMGWINTETGEPTYADDFKGRFAFSLETSASTAYLQINNLKNEDTATYFCARAGGNAFAYWGQGTLVTVSA
VL: DIVLTQSPASLAVSLGQRATISCRASKSVSTSGYSYMHWYQQKPGQPPKLLIYRASNLESGVPARFSGSGSGTDFTLNIHPVEEEDAATYYCQHSRELPLTFGAGTKLELKR
notes: Mouse hybridoma monoclonal, IgG1 heavy chain and kappa light chain; Tested as hybridoma supernatant in ELISA and FACS; also called IF5; antibody from clone 1F5
In the case of B2, the Kd was about 0.783 nM.
